Publication PMC7203112, “Structural basis for the complex DNA binding behavior of the plant stem cell regulator WUSCHEL”

Columns and labels:
WUS-HD [1] = biological target: T1, WUS-HD (Arabidopsis thaliana, UniProt Q9SB92 34-103); test: EMSA; MST: 20 mM Tris-HCl pH 8.0, 75 mM NaCl, 10 mM MgCl2, 0.05% Tween-20, 20 C, 50 nM YFP-WUS; ITC: same without Tween, 20 C; EMSA: 10 mM Tris-HCl pH 8.0, 75 mM NaCl, 50 ug/ml poly(dI-dC), 1 mM EDTA, 1 mM DTT, 5% glycerol; settings: protein: recombinant; tags: none after TEV cleavage (from His6-MBP); label: Cy5; blunt
T1 sequence: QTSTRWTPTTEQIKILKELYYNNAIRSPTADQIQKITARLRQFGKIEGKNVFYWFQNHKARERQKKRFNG

WUS-HD [2] = biological target: T1, WUS-HD; test: ITC; first binding event (Kd,1), sequential model, 2:1; MST: 20 mM Tris-HCl pH 8.0, 75 mM NaCl, 10 mM MgCl2, 0.05% Tween-20, 20 C, 50 nM YFP-WUS; ITC: same without Tween, 20 C; EMSA: 10 mM Tris-HCl pH 8.0, 75 mM NaCl, 50 ug/ml poly(dI-dC), 1 mM EDTA, 1 mM DTT, 5% glycerol; settings: protein: recombinant; tags: none after TEV cleavage (from His6-MBP); blunt
YFP-WUS-HD F101A = biological target: T2, YFP-WUS-HD F101A (Arabidopsis thaliana, UniProt Q9SB92 34-103, F101A); test: MST; MST: 20 mM Tris-HCl pH 8.0, 75 mM NaCl, 10 mM MgCl2, 0.05% Tween-20, 20 C, 50 nM YFP-WUS; ITC: same without Tween, 20 C; EMSA: 10 mM Tris-HCl pH 8.0, 75 mM NaCl, 50 ug/ml poly(dI-dC), 1 mM EDTA, 1 mM DTT, 5% glycerol; settings: protein: recombinant; tags: N-terminal His6-YFP, C-terminal StrepII; blunt
T2 sequence: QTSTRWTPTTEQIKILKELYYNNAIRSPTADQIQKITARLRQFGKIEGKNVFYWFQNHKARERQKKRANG

YFP-WUS-HD I66A = biological target: T3, YFP-WUS-HD I66A (Arabidopsis thaliana, UniProt Q9SB92 34-103, I66A); test: as above; settings: protein: recombinant; tags: N-terminal His6-YFP, C-terminal StrepII; blunt
T3 sequence: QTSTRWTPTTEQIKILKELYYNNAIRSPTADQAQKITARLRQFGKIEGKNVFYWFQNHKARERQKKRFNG

YFP-WUS-HD F85A = biological target: T4, YFP-WUS-HD F85A (Arabidopsis thaliana, UniProt Q9SB92 34-103, F85A); test: as above; settings: protein: recombinant; tags: N-terminal His6-YFP, C-terminal StrepII; blunt
T4 sequence: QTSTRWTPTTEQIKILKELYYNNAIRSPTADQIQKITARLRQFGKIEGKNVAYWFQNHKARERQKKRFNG

YFP-WUS-HD = biological target: T5, YFP-WUS-HD (Arabidopsis thaliana, UniProt Q9SB92 34-103); test: as above; settings: protein: recombinant; tags: N-terminal His6-YFP, C-terminal StrepII; blunt
T5 sequence: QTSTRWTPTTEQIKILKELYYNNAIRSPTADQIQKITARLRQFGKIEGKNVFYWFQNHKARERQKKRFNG

MBP-WUS-FL = biological target: T6, MBP-WUS-FL (Arabidopsis thaliana, UniProt Q9SB92 1-292); test: EMSA; MST: 20 mM Tris-HCl pH 8.0, 75 mM NaCl, 10 mM MgCl2, 0.05% Tween-20, 20 C, 50 nM YFP-WUS; ITC: same without Tween, 20 C; EMSA: 10 mM Tris-HCl pH 8.0, 75 mM NaCl, 50 ug/ml poly(dI-dC), 1 mM EDTA, 1 mM DTT, 5% glycerol; settings: protein: recombinant; tags: N-terminal His6-MBP; chain copies: 2; label: Cy5; blunt
T6 sequence: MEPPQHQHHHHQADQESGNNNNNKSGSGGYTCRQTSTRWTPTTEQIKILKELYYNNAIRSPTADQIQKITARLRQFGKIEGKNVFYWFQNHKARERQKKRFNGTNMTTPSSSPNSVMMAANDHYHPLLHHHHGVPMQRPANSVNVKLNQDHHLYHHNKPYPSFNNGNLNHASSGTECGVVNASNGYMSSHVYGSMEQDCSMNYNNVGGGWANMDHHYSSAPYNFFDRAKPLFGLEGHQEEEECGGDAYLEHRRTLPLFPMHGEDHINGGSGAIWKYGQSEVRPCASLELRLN

YFP-WUS-HD T35R = biological target: T7, YFP-WUS-HD T35R (Arabidopsis thaliana, UniProt Q9SB92 34-103, T35R); test: MST; MST: 20 mM Tris-HCl pH 8.0, 75 mM NaCl, 10 mM MgCl2, 0.05% Tween-20, 20 C, 50 nM YFP-WUS; ITC: same without Tween, 20 C; EMSA: 10 mM Tris-HCl pH 8.0, 75 mM NaCl, 50 ug/ml poly(dI-dC), 1 mM EDTA, 1 mM DTT, 5% glycerol; settings: protein: recombinant; tags: N-terminal His6-YFP, C-terminal StrepII; blunt
T7 sequence: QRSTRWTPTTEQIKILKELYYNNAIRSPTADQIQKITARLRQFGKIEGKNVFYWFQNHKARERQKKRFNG

YFP-WUS-HD R94K = biological target: T8, YFP-WUS-HD R94K (Arabidopsis thaliana, UniProt Q9SB92 34-103, R94K); test: as above; settings: protein: recombinant; tags: N-terminal His6-YFP, C-terminal StrepII; blunt
T8 sequence: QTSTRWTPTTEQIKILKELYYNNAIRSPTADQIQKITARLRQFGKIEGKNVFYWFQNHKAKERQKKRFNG

YFP-WUS-HD S36R = biological target: T9, YFP-WUS-HD S36R (Arabidopsis thaliana, UniProt Q9SB92 34-103, S36R); test: as above; settings: protein: recombinant; tags: N-terminal His6-YFP, C-terminal StrepII; blunt
T9 sequence: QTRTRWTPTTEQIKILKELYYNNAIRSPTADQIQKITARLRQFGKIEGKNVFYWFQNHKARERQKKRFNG

WUS-HD [3] = biological target: T1, WUS-HD; test: crystal structure; 2.8 A; two or three HD per DNA; MST: 20 mM Tris-HCl pH 8.0, 75 mM NaCl, 10 mM MgCl2, 0.05% Tween-20, 20 C, 50 nM YFP-WUS; ITC: same without Tween, 20 C; EMSA: 10 mM Tris-HCl pH 8.0, 75 mM NaCl, 50 ug/ml poly(dI-dC), 1 mM EDTA, 1 mM DTT, 5% glycerol; settings: protein: recombinant; tags: none after TEV cleavage (from His6-MBP); blunt
WUS-HD [4] = biological target: T1, WUS-HD; test: EMSA; shift slightly modified; MST: 20 mM Tris-HCl pH 8.0, 75 mM NaCl, 10 mM MgCl2, 0.05% Tween-20, 20 C, 50 nM YFP-WUS; ITC: same without Tween, 20 C; EMSA: 10 mM Tris-HCl pH 8.0, 75 mM NaCl, 50 ug/ml poly(dI-dC), 1 mM EDTA, 1 mM DTT, 5% glycerol; settings: protein: recombinant; tags: none after TEV cleavage (from His6-MBP); label: Cy5; blunt

B1: f_TAAT wt 16-bp (dsDNA)
DNA 1: GTGTTAATGGGTTGTG
DNA 2: CACAACCCATTAACAC
B1: binds (WUS-HD [1]).

B2: 2xTGAA (dsDNA)
DNA 1: CGCCTGAATGAACGCC
DNA 2: GGCGTTCATTCAGGCG
In the case of B2, the Kd (WUS-HD [2]) is reported as 1240 ± 140 nM, the Kd (YFP-WUS-HD F101A) is reported as 800 ± 120 nM and the Kd (YFP-WUS-HD I66A) is reported as 8200 ± 840 nM. It also gave a Kd (YFP-WUS-HD F85A) of 6810 ± 870 nM and a Kd (YFP-WUS-HD) of 300 ± 40 nM.

B3: G-Box 16-bp (dsDNA)
DNA 1: GTCGTCACGTGATGGG
DNA 2: CCCATCACGTGACGAC
In the case of B3, the Kd (YFP-WUS-HD) is reported as 3780 ± 420 nM.

B4: f_G-Box (dsDNA)
DNA 1: CATCGTCGTCACGTGATGGG
DNA 2: CCCATCACGTGACGACGATG
B4 showed a Kd (MBP-WUS-FL) of 1680 ± 300 nM.

B5: 1xTGAA (dsDNA)
DNA 1: CGCCGGTGAAGCCGCC
DNA 2: GGCGGCTTCACCGGCG
With B5 the Kd (YFP-WUS-HD) was 10500 ± 2300 nM.

B6: TGAA Head-to-Head (dsDNA)
DNA 1: CGCCTTCATGAACGCC
DNA 2: GGCGTTCATGAAGGCG
B6 gave a Kd (YFP-WUS-HD) of 3170 ± 350 nM.

B7: 2xTGAA 4xSpacing (dsDNA)
DNA 1: CGTGAAGCGCTGAACC
DNA 2: GGTTCAGCGCTTCACG
In the case of B7, the Kd (YFP-WUS-HD) is reported as 3580 ± 440 nM.

B8: 2xTGAA 1xSpacing (dsDNA)
DNA 1: CGCTGAACTGAACGCC
DNA 2: GGCGTTCAGTTCAGCG
B8 was tested, and the Kd (YFP-WUS-HD) was 2210 ± 250 nM.

B9: f_TAAT T12C (dsDNA)
DNA 1: GTGTTAATGGGCTGTG
DNA 2: CACAGCCCATTAACAC
B9: binds (WUS-HD [1]).

B10: 3xTGAA (dsDNA)
DNA 1: CGTGAATGAATGAACC
DNA 2: GGTTCATTCATTCACG
With B10 the Kd (YFP-WUS-HD) was 60 ± 10 nM.

B11: 3xTGAA 1xSpacing (dsDNA)
DNA 1: CTGAACTGAACTGAAC
DNA 2: GTTCAGTTCAGTTCAG
Binder B11 has a Kd (YFP-WUS-HD) of 840 ± 120 nM.

B12: TGAA 16-bp (dsDNA)
DNA 1: AGTGTATGAATGAACG
DNA 2: CGTTCATTCATACACT
With B12 the Kd (YFP-WUS-HD T35R) was 540 ± 70 nM, the Kd (YFP-WUS-HD R94K) was 11000 ± 1620 nM and the Kd (YFP-WUS-HD S36R) was 320 ± 30 nM. For the same binder, the Kd (YFP-WUS-HD) was 270 ± 30 nM.

B13: 3xTGAG (dsDNA)
DNA 1: CGTGAGTGAGTGAGCC
DNA 2: GGCTCACTCACTCACG
B13 showed a Kd (YFP-WUS-HD) of 1420 ± 170 nM.

B14: TGAA Tail-to-Tail (dsDNA)
DNA 1: CGCCTGAATTCACGCC
DNA 2: GGCGTGAATTCAGGCG
Binder B14 has a Kd (YFP-WUS-HD) of 1900 ± 200 nM.

B15: 3xTGAT (dsDNA)
DNA 1: CGTGATTGATTGATCC
DNA 2: GGATCAATCAATCACG
Binder B15 has a Kd (YFP-WUS-HD) of 120 ± 10 nM.

B16: TAAT 16-bp (dsDNA)
DNA 1: GTGTTAATGGGTTGTG
DNA 2: CACAACCCATTAACAC
With B16 the binding result (WUS-HD [3]) was “binds”, the Kd (YFP-WUS-HD T35R) was 1670 ± 200 nM and the Kd (YFP-WUS-HD R94K) was 4590 ± 580 nM. For the same binder, the Kd (YFP-WUS-HD S36R) was 1670 ± 170 nM.

B17: 3xTGAC (dsDNA)
DNA 1: CGTGACTGACTGACCC
DNA 2: GGGTCAGTCAGTCACG
For B17, the Kd (YFP-WUS-HD) was 390 ± 50 nM.

B18: f_TAAT T12C,T15C (dsDNA)
DNA 1: GTGTTAATGGGCTGCG
DNA 2: CGCAGCCCATTAACAC
B18: binds (WUS-HD [4]).
